Blank lines part the entries; values can stand above or below the binder they belong to.
What was measured:
[1] = target: T1, Recombinant human IL-1beta (rhIL-1b) (human, UniProt P01584 117-269); assay: Biacore low-res, mAb captured, 25C; IL-1β in solution (118 nM) over captured mAb; low-resolution Biacore, 25 C
T1 construct: R&D Systems Cat. No. 201-LB/CF; also called IL-1β; human IL-1β

[2] = target: T1, Recombinant human IL-1beta (rhIL-1b); assay: cell-based or functional assay
[3] = target: T1, Recombinant human IL-1beta (rhIL-1b); assay: Biacore, Low Resolution screen
[4] = target: T1, Recombinant human IL-1beta (rhIL-1b); assay: cell-based or functional assay; remark: listed apart in the source
IL-1β R4A mutant = target: T2, IL-1β R4A mutant (human, UniProt P01584 117-269); assay: binding to site-directed IL-1β mutant; X = abrogation of binding
T2 construct: site-directed mutant

IL-1β R11A mutant = target: T3, IL-1β R11A mutant (human, UniProt P01584 117-269); assay: as above
T3 construct: site-directed mutant

[5] = target: T1, Recombinant human IL-1beta (rhIL-1b); assay: Biacore, Medium Resolution; IL-1β in solution; medium-resolution Biacore
[6] = target: T1, Recombinant human IL-1beta (rhIL-1b); assay: Biacore high-res, mAb amine-coupled, 23C
[7] = target: T1, Recombinant human IL-1beta (rhIL-1b); assay: cell-based or functional assay; remark: listed apart in the source

B4: 9.31.1 (antibody, human IgG4, V domains shown)
VH: QVQLVESGGGLVKPGGSLRLSCAASGFTFSDYYMSWIRQAPGKGLEWVSYIRSSGSTIYYADSVKGRFTISRDNAKNSLYLQMNSLRAEDTAVYYCARTPYSGRYHWYFDLWGRGTLVTVS
VL: SYELTQPPSVSVSPGQTARITCSGDALPIKYAYWYQHKSGQAPVLVIYEDSKRPSGIPERFSGSSSGTMATLTISGAQVEDEADYYCYSTDSSGNHRVFGGGTKLTVL
notes: lambda; also called 9.31.3
Kd [1]: 5760 pM
koff [1]: 0.0038 s⁻¹
kon [1]: 660000 M⁻¹ s⁻¹
EC50, inhibition of IL-1β-induced IL-6 production in MRC-5 cells [2]: 14300 pM
% IL-6 production, supernatant 1:5 dilut. [4]: 6%
% IL-6 production, supernatant 1:10 dilut. [4]: 23%
% IL-6 production, supernatant 1:20 dilut. [4]: 13%
binding result (IL-1β R11A mutant): no binding

B6: 9.26.1 (antibody, human IgG4, V domains shown)
VH: QVQLVESGGGVVQPGRSLRLSCAASGFTFNNYGMHWVRQAPGKGLECVAVIWYDGGNKYYADSVKGRFAISRDNSKNTLYLQMNSLRAEDTAVYYCTAVTKLNYYYGMDVWGQGTTVTVS
VL: QSALTQPASVSGSPGQSITISCTGTSSDVGGYNYVSWYQQHPGKAPKLMIYEVSNRPSGVSNRFSGSKSGNTASLTISGLQAEDEADYYCSSYTSSSILVFGGGTKLTVL
notes: lambda; also called 9.26.3
Kd [1]: 854 pM
koff [1]: 0.00035 s⁻¹
kon [1]: 410000 M⁻¹ s⁻¹
EC50, inhibition of IL-1β-induced IL-6 production in MRC-5 cells [2]: 5680 pM
% IL-6 production, supernatant 1:5 dilut. [4]: 12%
% IL-6 production, supernatant 1:10 dilut. [4]: 27%
% IL-6 production, supernatant 1:20 dilut. [4]: 27%

B7: 6.33.1 (antibody, human IgG4, V domains shown)
VH: QVQLVESGGGVVQPGRSLRLSCAASGFTFSVYGMHWVRQAPGKGLEWVAVIWYDGSNKYYADSVKGRFTISRDNSKNTLYLQMNSLRAEDTAVYYCAREKSSGWFFDYWGQGTLVTVSS
VL: QSALTQPASVSGSPGQSITISCTGTSSDVGSYNLVSWYQQHPGKAPKLMIYEVSKRPSGISNRFSGSKSGNTASLTISGLQAEDEADYYCCSYAGNSIWVFGGGTKLTVL
notes: lambda; also called mAb 6.33.1
Kd [1]: 320 pM
koff [1]: 0.00016 s⁻¹
kon [1]: 500000 M⁻¹ s⁻¹
Kd [6]: 236 pM
koff [6]: 0.000259 s⁻¹
kon [6]: 1.1e+06 M⁻¹ s⁻¹
EC50, inhibition of IL-1β-induced IL-6 production in MRC-5 cells [2]: 1060 pM
Kd [3]: 320 pM
% IL-6 production, supernatant 1:5 dilut. [4]: 13%
% IL-6 production, supernatant 1:10 dilut. [4]: 22%
% IL-6 production, supernatant 1:20 dilut. [4]: 22%
binding result (IL-1β R11A mutant): no binding
Kd [5]: 140 pM
koff [5]: 0.00014 s⁻¹
kon [5]: 970000 M⁻¹ s⁻¹

B8: 9.2.1 (antibody, human IgG4, V domains shown)
VH: QVQLVESGGGVVQPGRSLRLSCAASGFTFNNYGMHWVRQAPGKGLECVAVIWYDGGNKYYADSVKGRFAISRDNSKNTLYLQMNSLRAEDTAVYYCTAVTTLYYYYGMDVWGQGTTVTVS
VL: QSALTQPASVSGSPGQSITISCTGTSSDVGGYNYVSWYQQHPGKAPKLMIYEVSNRPSGVSNRFSGSKSGNTASLTISGLQAEDEADYYCSSYTSSSILVFGGGTKLTVL
notes: lambda
Kd [1]: 747 pM
koff [1]: 0.00074 s⁻¹
kon [1]: 990000 M⁻¹ s⁻¹
EC50, inhibition of IL-1β-induced IL-6 production in MRC-5 cells [2]: 5470 pM
Kd [3]: 747 pM
% IL-6 production, supernatant 1:5 dilut. [4]: 4%
% IL-6 production, supernatant 1:10 dilut. [4]: 8%
% IL-6 production, supernatant 1:20 dilut. [4]: 16%
binding result (IL-1β R11A mutant): no binding
Kd [5]: 290 pM
koff [5]: 0.00035 s⁻¹
kon [5]: 1.2e+06 M⁻¹ s⁻¹

B12: 4.20.1 (antibody, human IgG4, V domains shown)
VH: QVQLVESGGGVVQPGRSLRLSCAASGFTFSNYGMNWVRQAPGKGLEWVAVIWYDGNNKSEADSVKGRFTISRDNSKNTLYLQMNSLRAEDTAVYYCARDSRSGPFDYWGQGTLVTVSS
VL: EIVLTQSPDFQSVTPKEKVTITCRASQSIGSSLHWYQQKPDQSPKLLIKFASQSFSGVPSRISGSGSGTDFTLTINSLEAEDAATYYCHQSSSLPFTFGPGTKVDIK
notes: kappa; also called 4.20.2
Kd [1]: 5000 pM
binding result (IL-1β R4A mutant): no binding
binding result (IL-1β R11A mutant): no binding

The remaining binders from weak to strong by Kd [1], led by results:

Kd [1]: 9000 pM
koff [1]: 0.027 s⁻¹
kon [1]: 3e+06 M⁻¹ s⁻¹
binding result (IL-1β R11A mutant): no binding
B5: 8.50.1 (antibody, human IgG4, V domains shown)
VH: QVQLQESGPGLVKPSETLSLTCTVSGGSISSDYWSWIRQPAGKGLEWIGRFYNSGRTNYRPSLKSRITMSVDTSKNQFSLKLSSVTAADTAVYYCARDMYSGRGNWYFDLWGRGTLVTVS
VL: SYELTQPPSVSVSPGQTARITCSGDALPKKYAYWYQQKSGQAPVLVIYEDSKRPSGIPERFSGSSSGTMATLTISGAQVEDEADYYCYSTDSSDNHRVFGGGTKLTVL
notes: lambda

Kd [1]: 1230 pM
EC50, inhibition of IL-1β-induced IL-6 production in MRC-5 cells [2]: 1590 pM
Kd [3]: 1230 pM
% IL-6 production, supernatant 1:5 dilut. [4]: 6%
% IL-6 production, supernatant 1:10 dilut. [4]: 8%
% IL-6 production, supernatant 1:20 dilut. [4]: 23%
Kd [5]: 820 pM
B3: 8.6.1 (antibody, human IgG4, V domains shown)
VH: QVQLQESGPGLVKPSETLSLTCTVSGGSVSSGGYYWSWVRQPPGKGLEWIGCIYFSESTNYNPSLKSRVTISVDTSKNQFSLKLSSVTAADTAVYYCARDPMHYYGMDVWGQGTTVTVSS
VL: SFELTQPPSVSVSPGQTASITCSGDKLGDKFACWYQQKPGQSPVLVIYQDTKRPSGIPERISGSNSGNTATLTISGTQAMDEADYYCQAWDSSTYVVFGGGTKLTVL
notes: lambda; also called 8.6.3

Kd [1]: 712 pM
koff [1]: 0.00042 s⁻¹
kon [1]: 590000 M⁻¹ s⁻¹
EC50, inhibition of IL-1β-induced IL-6 production in MRC-5 cells [2]: 3150 pM
Kd [3]: 712 pM
% IL-6 production, supernatant 1:5 dilut. [4]: 6%
% IL-6 production, supernatant 1:10 dilut. [4]: 8%
% IL-6 production, supernatant 1:20 dilut. [4]: 18%
binding result (IL-1β R4A mutant): no binding
binding result (IL-1β R11A mutant): no binding
Kd [5]: 580 pM
koff [5]: 0.00058 s⁻¹
kon [5]: 1e+06 M⁻¹ s⁻¹
B1: 5.36.1 (antibody, human IgG4, V domains shown)
VH: QVQLQQSGPGLVKPSQTLSLTCAISGDSVSSNSAAWNWIRQSPSRGLEWLGRTYYRSKWYNDYAVSVKSRITINPDTSKNQFSLQLNSVTPEDTAVYYCAREEQQLVRYYYYYGMDVWGQGTTVTVS
VL: DIVMTQTPLSLSVTPGQPASISCKSSQSLLHSDGRTYLYWYLQRPGQPPQLLIYEASYRFSGVPDRFSGSGSGTDFTLKISRVEAEDVGIYYCMQSIQLPRTFGQGTRLEIK
notes: kappa

Kd [1]: 629 pM
koff [1]: 0.00022 s⁻¹
kon [1]: 350000 M⁻¹ s⁻¹
Kd [6]: 388 pM
koff [6]: 0.000188 s⁻¹
kon [6]: 485000 M⁻¹ s⁻¹
EC50, inhibition of IL-1β-induced IL-8 production in human whole blood [7]: 2290 pM
EC50, inhibition of IL-1β-induced IL-6 production in MRC-5 cells [2]: 536 pM
Kd [3]: 629 pM
% IL-6 production, supernatant 1:5 dilut. [4]: 2%
% IL-6 production, supernatant 1:10 dilut. [4]: 3%
% IL-6 production, supernatant 1:20 dilut. [4]: 9%
binding result (IL-1β R4A mutant): no binding
binding result (IL-1β R11A mutant): no binding
Kd [5]: 450 pM
koff [5]: 0.00022 s⁻¹
kon [5]: 490000 M⁻¹ s⁻¹
B2: 8.18.1 (antibody, human IgG4, V domains shown)
VH: QVQLQESGPGLVKPSETLSLTCTVSGGSVSSGGYYWSWIRQPPGKGLEWIGYFYYSGSPNYNPSLKRRIAISVDTSKNQFSLRLSSVTAADTAVYYCARDPMHYYGMDVWGQGTTVTVSS
VL: SSELTQPPSVSVFPGQTANITCSGDKLGDKFACWYQQKPGQSPVLVIYRDNKRPSGIPERFSGSNSGNTATLTISGTQAMDEADYYCQAWDSSTYVVFGGGTKLTVL
notes: lambda; also called mAb 8.18.1

Kd [1]: 478 pM
koff [1]: 0.00044 s⁻¹
kon [1]: 920000 M⁻¹ s⁻¹
EC50, inhibition of IL-1β-induced IL-6 production in MRC-5 cells [2]: 591 pM
Kd [3]: 478 pM
% IL-6 production, supernatant 1:5 dilut. [4]: 9%
% IL-6 production, supernatant 1:10 dilut. [4]: 8%
% IL-6 production, supernatant 1:20 dilut. [4]: 22%
binding result (IL-1β R11A mutant): no binding
Kd [5]: 200 pM
koff [5]: 0.00038 s⁻¹
kon [5]: 1.9e+06 M⁻¹ s⁻¹
B11: 6.26.1 (antibody, human IgG4, V domains shown)
VH: QLQLQESGPGLVKPSETLSLTCTVSGGSISRSSYYWGWIRQPPGKGLEWMGNIYYSGSTHYNPSLKSRVTISVDTSKNQFSLKLSSVTAADTAVFYCAKGREYISSSGYGMDVWGQGTTVTVS
VL: SYELTQPPSVSVSPGQTASITCSGDKLGNKYVCWYQQKPGQSPVLVIFQDSRRPSGIPERFSGSNSGNTATLTISGTQAMDEADYYCQAWDTSTVIFGGGTKLTVL
notes: lambda; also called 6.26.4

Kd [1]: 290 pM
koff [1]: 0.0002 s⁻¹
kon [1]: 690000 M⁻¹ s⁻¹
EC50, inhibition of IL-1β-induced IL-6 production in MRC-5 cells [2]: 2670 pM
Kd [3]: 290 pM
% IL-6 production, supernatant 1:5 dilut. [4]: 4%
% IL-6 production, supernatant 1:10 dilut. [4]: 3%
% IL-6 production, supernatant 1:20 dilut. [4]: 10%
binding result (IL-1β R11A mutant): no binding
Kd [5]: 140 pM
koff [5]: 0.00023 s⁻¹
kon [5]: 1.6e+06 M⁻¹ s⁻¹
B9: 9.11.1 (antibody, human IgG4, V domains shown)
VH: QVQLVESGGGVVQPGRSLRLSCAASGFTFSVYGMHWVRQAPGKGLEWVAVIWYDGNNKYYVDSVKGRFTISRDNSKNTLYLQLNSLRAEDTAVYYCARERSSSWYFDYWGQGTLVTVSS
VL: QSALTQPASVSGSSGQSITISCTGTSSDVGSYNLVSWYQQHPGKAPKLMIYEVSKRPSGVSNRFSGSKSGNTASLTISGLQAEDEADYYCCSYAGNSNWVFGGGTKLTVL
notes: lambda; also called 9.11.3

Kd [1]: 268 pM
koff [1]: 0.00015 s⁻¹
kon [1]: 560000 M⁻¹ s⁻¹
Kd [6]: 262 pM
koff [6]: 0.00019 s⁻¹
kon [6]: 727000 M⁻¹ s⁻¹
EC50, inhibition of IL-1β-induced IL-6 production in MRC-5 cells [2]: 2910 pM
% IL-6 production, supernatant 1:5 dilut. [4]: 5%
% IL-6 production, supernatant 1:10 dilut. [4]: 10%
% IL-6 production, supernatant 1:20 dilut. [4]: 15%
Kd [5]: 63 pM
koff [5]: 4e-05 s⁻¹
kon [5]: 640000 M⁻¹ s⁻¹
B10: 9.19.1 (antibody, human IgG4, V domains shown)
VH: QVQLVESGGGVVQPGRSLRLSCAASGFTFNNYGMHWVRQAPGKGLECVAVIWYDGGNKYYADSVKGRFAISRDNSKNTLYLQMNSLRAEDTAVYYCTAVTKLNYYYGMDVWGQRTTVTVS
VL: QSALTQPASVSGSPGQSITISCTGTSSDVGGYNYVSWYQQHPGKAPKFMIYEVSNRPSGVSNRFSGSKSGNTASLTISGLQAEDEADYYCSSYTSSSILVFGGGTKLTVL
notes: lambda; also called mAb 9.19.1

Reference: patent US20070065439A1 (Amgen, published 2007)
